Experimental data as given in the supplement of paper PMC7125110.
± gives the standard error. This sample holds only a part of the variants without activity.

B1: glmS ribozyme (parent)
chain: AUAAAAGCGCCAGAACUACAGAAAUGUAGUUGACGAGGAGGAGGUUUAUCGAAUUUUCGGCGGAUGCCUCCAAA

Columns and labels:
Settings in all cases: with glucosamine-6-phosphate
glucosamine-6-phosphate [1] = variants of: B1; experiment: self-cleavage kobs at 40 uM GlcN6P; higher = faster cleavage; RNA array
How it was run: (§1)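 Glucosamine-6-phosphate in HEPES/KCl/Mg(OAc)2 buffer, at 40 μM to 10 mM, was flowed over barcoded ribozyme variants transcribed in situ by E. coli RNA polymerase on sequenced MiSeq chips. Tracking was through a hybridised Cy3 probe at 37 °C. kobs, kcat and KM came from exponential decay fits and weighted Michaelis–Menten fits of normalised per-tile medians.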

glucosamine-6-phosphate [2] = variants of: B1; experiment: self-cleavage kobs at 160 uM GlcN6P; higher = faster cleavage; RNA array
How it was run: as §1

glucosamine-6-phosphate [3] = variants of: B1; experiment: self-cleavage kobs at 10000 uM GlcN6P; higher = faster cleavage; RNA array
How it was run: as §1

glucosamine-6-phosphate [4] = variants of: B1; experiment: self-cleavage kobs at 640 uM GlcN6P; higher = faster cleavage; RNA array
How it was run: as §1

glucosamine-6-phosphate [5] = variants of: B1; experiment: self-cleavage kobs at 2500 uM GlcN6P; higher = faster cleavage; RNA array
How it was run: as §1

Variant | self-cleavage kobs at 40 uM GlcN6P (glucosamine-6-phosphate [1]) | self-cleavage kobs at 160 uM GlcN6P (glucosamine-6-phosphate [2]) | self-cleavage kobs at 10000 uM GlcN6P (glucosamine-6-phosphate [3]) | self-cleavage kobs at 640 uM GlcN6P (glucosamine-6-phosphate [4]) | self-cleavage kobs at 2500 uM GlcN6P (glucosamine-6-phosphate [5])
U46C G62U | < 1e-05 s⁻¹ | < 1e-05 s⁻¹ | < 1e-05 s⁻¹ |  | 
A12U U55A | 0.00252 ± 0.00039 s⁻¹ | 0.00433 ± 0.0018 s⁻¹ | 0.0587 ± 0.02 s⁻¹ | 0.0231 ± 0.0089 s⁻¹ | 
G40C G44A | < 1e-05 s⁻¹ | < 1e-05 s⁻¹ |  | < 1e-05 s⁻¹ | < 1e-05 s⁻¹
C10G C61U C71A | < 1e-05 s⁻¹ |  |  |  | 
G13A A36G G44U A53U | < 1e-05 s⁻¹ |  | < 1e-05 s⁻¹ |  | < 1e-05 s⁻¹
U30G U31G U46G U55A | 0.000118 ± 3.3e-05 s⁻¹ |  | 0.00358 ± 0.00067 s⁻¹ |  | 
G7C C11U G29A G40A A42U G62U | < 1e-05 s⁻¹ |  |  |  | 
G37A U45C C58U C61G | < 1e-05 s⁻¹ |  |  |  | 
A48C A52G | < 1e-05 s⁻¹ | < 1e-05 s⁻¹ |  | < 1e-05 s⁻¹ | 
G32A G43U C67U | < 1e-05 s⁻¹ |  |  |  | < 1e-05 s⁻¹
C10U G40A C67A | < 1e-05 s⁻¹ |  | < 1e-05 s⁻¹ |  | 
C16A C34A G37U C50A C61A | 0.000276 ± 6.5e-05 s⁻¹ |  | 0.000316 ± 6.4e-05 s⁻¹ |  | 
C10U G63U C70U | < 1e-05 s⁻¹ |  | < 1e-05 s⁻¹ |  | 
G9U U30C A36C | < 1e-05 s⁻¹ |  |  | < 1e-05 s⁻¹ | < 1e-05 s⁻¹
A12U C16U G62A | < 1e-05 s⁻¹ |  |  |  | 
G21U C67G | 9.41e-05 ± 2.8e-05 s⁻¹ |  | 0.00119 ± 0.00023 s⁻¹ |  | 0.000139 ± 4.1e-05 s⁻¹
A14U G41C G43A G63U C67A C70A | < 1e-05 s⁻¹ |  | < 1e-05 s⁻¹ |  | 
C16U G59C | < 1e-05 s⁻¹ |  | < 1e-05 s⁻¹ | < 1e-05 s⁻¹ | 
A6U U31C C50G | 7.08e-05 ± 1.6e-05 s⁻¹ |  | 3.4e-05 ± 1.4e-05 s⁻¹ |  | 
A39C G60C C68U | < 1e-05 s⁻¹ | < 1e-05 s⁻¹ |  | < 1e-05 s⁻¹ | 
C11U C50A C70G | 9.07e-05 ± 2.5e-05 s⁻¹ |  | 5.4e-05 ± 1.6e-05 s⁻¹ | 0.000365 ± 8.8e-05 s⁻¹ | 0.000173 ± 6e-05 s⁻¹
G7U U30A | < 1e-05 s⁻¹ | < 1e-05 s⁻¹ |  | < 1e-05 s⁻¹ | < 1e-05 s⁻¹
C11U A33G G37U C71A | < 1e-05 s⁻¹ |  | < 1e-05 s⁻¹ |  | 
U45C C50G | < 1e-05 s⁻¹ | < 1e-05 s⁻¹ | < 1e-05 s⁻¹ | < 1e-05 s⁻¹ | < 1e-05 s⁻¹

Variant | self-cleavage kobs at 40 uM GlcN6P (glucosamine-6-phosphate [1]) | self-cleavage kobs at 160 uM GlcN6P (glucosamine-6-phosphate [2]) | self-cleavage kobs at 10000 uM GlcN6P (glucosamine-6-phosphate [3]) | self-cleavage kobs at 640 uM GlcN6P (glucosamine-6-phosphate [4]) | self-cleavage kobs at 2500 uM GlcN6P (glucosamine-6-phosphate [5])
G7U U54G C70G C71U | 7.3e-05 ± 2.8e-05 s⁻¹ |  | 5.65e-05 ± 2.5e-05 s⁻¹ |  | 
U30A A33U C34G G37A | < 1e-05 s⁻¹ |  |  |  | 
G40C C61A | < 1e-05 s⁻¹ |  |  |  | < 1e-05 s⁻¹
A48G G63U | < 1e-05 s⁻¹ |  | < 1e-05 s⁻¹ |  | < 1e-05 s⁻¹
A6G U30C | < 1e-05 s⁻¹ | < 1e-05 s⁻¹ |  |  | 
A15G C68A C70U | < 1e-05 s⁻¹ |  |  |  | 
U57C G62U U65C | < 1e-05 s⁻¹ |  | < 1e-05 s⁻¹ |  | 
A6G A52U C61G | < 1e-05 s⁻¹ |  |  |  | 
A36G U56A | < 1e-05 s⁻¹ |  |  | < 1e-05 s⁻¹ | 
A6C G62C | < 1e-05 s⁻¹ | < 1e-05 s⁻¹ | < 1e-05 s⁻¹ | < 1e-05 s⁻¹ | < 1e-05 s⁻¹
G43C G44U C58U | < 1e-05 s⁻¹ |  |  |  | < 1e-05 s⁻¹
G7A A53C | < 1e-05 s⁻¹ | < 1e-05 s⁻¹ |  | < 1e-05 s⁻¹ | < 1e-05 s⁻¹
U55A G62U | < 1e-05 s⁻¹ |  | < 1e-05 s⁻¹ | < 1e-05 s⁻¹ | < 1e-05 s⁻¹
C8A A12U A33C A39G A53C C68A | < 1e-05 s⁻¹ |  |  |  | 
C11A A12U A52U | < 1e-05 s⁻¹ |  |  |  | 
G7C A15G A36U | < 1e-05 s⁻¹ |  | < 1e-05 s⁻¹ | < 1e-05 s⁻¹ | 
C16G G62U C67G | < 1e-05 s⁻¹ |  |  |  | 
A6G G35A | < 1e-05 s⁻¹ | < 1e-05 s⁻¹ | < 1e-05 s⁻¹ | < 1e-05 s⁻¹ | < 1e-05 s⁻¹
A14C G60U | < 1e-05 s⁻¹ | < 1e-05 s⁻¹ | < 1e-05 s⁻¹ | < 1e-05 s⁻¹ | 
C34A A36G | < 1e-05 s⁻¹ | < 1e-05 s⁻¹ | < 1e-05 s⁻¹ | < 1e-05 s⁻¹ | < 1e-05 s⁻¹
U30G G62A | < 1e-05 s⁻¹ | < 1e-05 s⁻¹ | < 1e-05 s⁻¹ | < 1e-05 s⁻¹ | 
C8U A42C | < 1e-05 s⁻¹ | < 1e-05 s⁻¹ | < 1e-05 s⁻¹ | < 1e-05 s⁻¹ | < 1e-05 s⁻¹
A42U G51C | < 1e-05 s⁻¹ | < 1e-05 s⁻¹ |  | < 1e-05 s⁻¹ | 
A6U G35C G62A | < 1e-05 s⁻¹ | < 1e-05 s⁻¹ | < 1e-05 s⁻¹ | < 1e-05 s⁻¹ | < 1e-05 s⁻¹
